For assay [1], the target named is FcγIIIaV158F (human) (UniProt P08637). Briefly: SPR (Biacore 8K), 25° C, ADC captured on nectin-4-coated chip, receptor ECD as analyte, steady-state analysis. On the technique in general: SPR reads the build-up and loss of mass on a sensor chip optically.
The target in assay [2] is hFcγIIIa (human) (UniProt P08637). The assay is described as above.
The target of assay [3] is FcγIIIaV158F (human) (UniProt P08637). Briefly: SPR (Biacore 8K), 25° C, antibody captured on nectin-4-coated chip, receptor ECD as analyte, steady-state analysis.
Assay [4] addresses hFcγIIIa (human) (UniProt P08637). The assay is described as above.

Our source for the Kd values is patent US20240010701A1.

In general, Kd refers to the constant that tells how readily two partners part at equilibrium. Read a high Kd as a looser complex. As for “DRUG C (enfortumab vedotin similar antibody-drug conjugate)”, the figures for the Kd in the assay with FcγIIIaV158F (human) [1] and with hFcγIIIa (human) [2] were 1200 nM and 429 nM, respectively.

As for “DRUG B (enfortumab similar antibody that specifically binds human nectin-4)”, the Kd in the assay with FcγIIIaV158F (human) [3] is 983 nM; with hFcγIIIa (human) [4] it was 316 nM.
